The results in this text go back to a protein production outcome set (Wang et al. 2014).

This data set is described as follows: label from the status in PepcDB records.
For the sequence “MSKHVNWSGVFPAVTTQFNADFSVNLEETHTVISNLVRDGVSGLVVCGSVGENTSLTIEEKMAVTEVAKDASGGRVPVICGIAEFTSAGAAKVAKAVERVGVDGIMVMPALVYSSKPHETAEHFRSVASGTDLPVMVYNNPPIYRNDVTPDILVSLADCENIVCFKDSSGDTRRFIDVRNQVGERFILFAGLDDVVLESVAVGAQGWISGMSNVFPKEGETIFRLARAGRFAEAMPIYEWLMPILHLDARPDLVQCIKLCEQLAGRGSALTRPPRLALRGADREHVERIMAKALA”, the protein production result is reported as “failed”.

With “MSYFYKHCLKFSLVGLLGLLSVQLDARSFVDGDLDIQKFSYEDSLLKKGDPNGVHKVQVRDYKGKMQEAEIHSEIRIALKPGVKKEVKKGKIYSAQINDGMCYAFRMLQTGDNTTGLDSKEFPKQSREKKGRVITLIGKGEVPYLILETDCQVGDIAKISLVGNFDGTGFLTEYKFKDAKPIY”, the protein production result is on record as “failed”.

Take “MRYHGGLLLGAFDDDGKIIGMSFGYPGFRNGKLYLYSHMAGVVENKKYSNVGYSLKMKQRDLAASMGYDLIAWTFDPFNPLNAYFNISKLGAITRTYIKNFYGVMNDGINRGMRTDRVVAEWWI”: the protein production result is recorded as “failed”.

In the case of “DISSTEIWDAIRRNSFLLYYQPKVDAKTNELIGFEGLIRLKTATAILAPADFFEDIALLNATREMQDFVAETAIEQINQLGGRFSISINIPAHYVVSSNYMTFLYDYVKEHLKYPECLEIEIIERGEITELAVADKNLRKIKKLGVTVSMDDFGKGYSSLAYLRSLPIDIVKTDMSFIALLKTDRKQQIIIQAIVNLCHDLGGKVVTEGVEDIEQVKTLREMKVDYFQGYYFSRP”, the protein production entry was “not failed”.

As for “ESYTIPHPSYDQPDSYQEREIVIGNSTYPLPATLTVPKHQRGEKVPVVVLVHGAGIHDRDATYLGTKILRDLAVGLSSNGIAVLRYEKRTLEHALKMSAEPVTLDRDTTDDAIYAAKSAAQQEGIDPNNIFILGHSQGAGTMPRILSKAPSSLVRGSILLAPPAHPLTDIAIDQYQYLGKPQEEIDELKRQAAFIQDPTFNPDHPPAGYNFGSPHFMYDVSRWRPVEEAKSRKEPLLILQGARDYQVTVKNEYTKWQEGLANRRNVQFKKYPKLNHFFTEGDGELSLPSEYEIPANVPEYVIQDIITWVNETK”, the protein production result is “failed”.

Regarding “MQIFVNGETIETEVITLNLLLEELGYEGNWLATAVNAEVVPIDARSRCVLHEGDKIEILSPMQGG”, the protein production entry is “failed”.

Regarding “MKILVTSGGTSEAIDSVRSITNHSTGHLGKIITETLLSAGYEVCLITTKRALKPEPHPNLSIREITNTKDLLIEMQERVQDYQVLIHSMAVSDYTPVYMTGLEEVQASSNLKEFLSKQNHQAKISSTDEVQVLFLKKTPKIISLVKEWNPTIHLIGFKLLVDVTEDHLVDIARKSLIKNQADLIIANDLTQISADQHRAIFVEKNQLQTVQTKEEIAELLLEKIQAYHS”, the protein production result is “not failed”.

Take “MAIKITPDEFSLLIQRLNKKWRVFAPSAEFRGGRFSDTDNIIYQRISGWRDLIWHEKSHMSPNTIIAPITETLFYFDKDTIQIAETDTSPIIIFARACDINAMSRLDYMYLSNGNNSDYSYQLLREHIRFVLIECEKSFENCFCVSMGTNKTDCYSAAMRFSDEGALVSIRDPFIEAAIQGLGQEADYTPSFVSENRETVVTPDSVCRDPQKIRDILTRHPLWDAYDSRCISCGRCTTGCPTCTCYSVFDVAYDENPQRGERRRQWASCMVPGFSDMAGGHGFREKPGERLRYRALHKVNDYKARNGIEHMCVGCGRCDDRCPQYIKFSLIINKMTAAVRQALAEEA”: the protein production result is reported as “failed”.

For the sequence “MSDLLDTVRGLAKKTDSKILMVVLDGVGGLPLTVNGDTELATARTPNLDALAQESQLGQLELVGAGITPGSGPGHLSLFGYDPLKYVVGRGALSAVGIGVKLNRGDVAVRGNFATLGAGRLILDRRAGRPSDEKNAEIVAKLRAAIPEIDGVAVEVYTESEHRFVVVFRAPEGQPLGANISDVDPQVTGVEPKTAIANDPSSEVTAGLINTFVARAEVALADEPQVNGVLFRGYSDVPHFPSFEDAYQLKAACIASYPMYKGLASLVGMDVLPVEGHEDALEGKVKALRENWAKYDFFYFHIKKTDSTGEDGDFAEKVHKIELFDELLPQLLELQPDVIAVVGDHSTPSKLKSHSWHPVPLLIRSNYGRRDPAQRYTEEEAARGTLGLRHGPDLMPLLMANALKLNKYGALEHHHHHH”, the protein production entry was “not failed”.

Consider “MQNIILTTKKIFRLAFILILIAATFMSCKTAPAKEETLIDLIKAGKSEELQERLNSSAINMKDEEGNSLLHIAAVKNDPIIVRLLINMDADIEAKNNTGATPLAAALNNSAYDAVKVLVEYNANIFAKDNEGEKPFDTACKNNVPNLILTAQTIKQKDENQDTVLHLAVKAMDKQLTKQILAIAPPETVYNKENLSPLAIAYKHNNAEDSAEIASILLLAGIQPMGKDFAEFETASLARNYSMRFADGETLLHIFARKGYTGFLKFLIKNKVPIDVKDISSSTAMQEAVYNGNTEAAILLLQAGADPNSRNSSGNTALHLVMPEASRSKLFNELITAGANPNLKDNYGETPLHVAARIGMNDDILDQLLKAGADINERNKKGQTPLILAIDRNQTQQVDFLINHGADIHAEDKSGESAFIHSLSMGLPMVEHVVTEKNSTERDSNGSTPLHLAVSHRASSDIIYYLVEKKSLINTRNKLGNTPLHIAAEKNYREAGEILIANNADIFYANLNGDSPLKFALTLREGREDWMINSHTIGAGDGAGNTPLHLAAEWQILPMIPYLIDKGADINARNTNNETPLFNAVRTDSPEAIKALLGEGVSKKADLDARDFLGNTILHAAVRWSAYKAADFILSKDTEEYVRLINAKNLAGKTVLHEAAKQGEIKFINIFLKAKVDVNAADETGRSPLSEAVLANQTQAIDLLLKNGASPVQQDMYGRTALHEAVEISEESIILVRNAGGNPLTKDAYGKTPFSLALNKNIRTVDLVLGNDSLLADTDGDTPLHIAVKERVSLDYFQRIMKKKYPVNKRNKNGETALLLAIQNSQKEITRALLAGGADPFIVNNKGVSAITEIFMHHPDFTPIAAEFSLKQTDTLGEGMLHYAAKFADVQTLKDILALPGIKLDVKNTAGETPYQVALRWNRSEIAELLKTE”, for which the protein production result is “failed”.

As to “MKTNAGRFFEDYRLGETIAHAVPRTVSGGERALYHALYPARHALSSSDEFARACGLPAAPVDELMAFHLVFGKTVPDISLNAVANLGYAEGRWLKPVFPGDTLRAESTVIGLKENSNGASGVVWVRTRGLNQQGEAVLSYVRWVMVRKRDTAAPAPAPTVPELAGSVAASDLVIPEGLSFTDYDLTLAGEPHRWGDYAVGEKIDHVDGVTVEESEHMLATRLWQNTAKVHFDATNRPDGRRLIYGGHVISLARTLSFNGLANAQMIVALNAGAHANPCFAGDTVRAWSEVLDKAETADPGVGALRLRLVAMKHGTEPFVTRSEDGKYLPGVLLDLDYWALVPR”, the protein production result is recorded as “failed”.

Take “MLFFADRSPFVRPLSGYAPVTPAAPRSTGSAAAPPPSPAVLDDRSGTEGDVTPMMAQYLAVKAAHPDCLLFYRMGDFYEMFFEDAVKAAETLDIALTKRGRHAGADIPMCGVPIHSHEGYLSRLIRAGIKVAICEQMEDPAEARRQRGYKAVVRRDVIRVVTAGTLTEDELLDARAHNYLAAVVRLRDAVGMAWVDVSTGDLVAQPLAEADIGPALARLAPGEVLMPEKLAGDPALREILAPLAGRISPLPASRFDSENARKRVEGLFGVKALDGFGGFGRAEVAAIGALIDYVELTQVGRLPRLSPPRRLSLGAILEIDGATRRNLELTETLGGGRKGSLLARIDCTVTGAGARLLAERLAAPLTDPAQIGARLDGVGFLVSAERVRGDLRDTLRGCPDIARALSRLSLGRGGPRDLAAIGEALSRIPALRVLVVGAGLGEPPTELTAALIDLGSHEGLVDLLGRALDADLPLLARDGGFIRPGYDAGLDELRALRDEGRRLIAGLQARYASETAIPALKIKHNNVLGYFIEVAAGRADKLMAAGGPFLHRQTLASQVRFTTVELSELEDKIRGAADKALALEQALFATLCAEVLGCAADIARAANGLACLDVAAALADLAARERYARPVVDNSTAFRIHKGRHPVVEAALADQAGPAFVANDCDLAPDQRLWLLTGPNMAGKSTFLRQNALIAVLAQMGSFVPAESAEIGVIDRLFSRVGAADDLARGRSTFMVEMVETAAILNQATERSLVILDEIGRGTATYDGLSIAWATVESLHDATRCRALFATHYHELTALASRLDRLSCHTLRIKEWKDQVVFLHEVGPGAADRSYGIHVAKLAGLPAAVIARAEQVLAILEKGDASSAATRLADDLPLFAAARPRAGLPTPPPGPHPLAEALNAINPDEMTPREALDALYRLKAVMKRE”: the protein production entry is reported as “failed”.
